In publication PMC11464748, “A novel assay of excess plasma kallikrein-kinin system activation in hereditary angioedema” (Frontiers in Allergy, 2024):
Values joined by “and” are separate entries in the source; they are usually repeats but may differ in a detail not shown here. Equal values may be shown once.

B1: M4-B4 antibody (Fab or IgG, format not told for the experiment) (antibody, V domains shown)
VH: EVQLLESGGGLVQPGGSLRLSCAASGFTFSFYVMVWVRQAPGKGLEWVSGISPSGGNTAYADSVKGRFTISRDNSKNTLYLQMNSLRAEDTAVYYCARKLFYYDDTKGYFDFWGQGTLVTVSS
VL: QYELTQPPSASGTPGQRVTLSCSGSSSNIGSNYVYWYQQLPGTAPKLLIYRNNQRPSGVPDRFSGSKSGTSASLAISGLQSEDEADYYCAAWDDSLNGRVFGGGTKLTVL
notes: variable part as the heavy chain of m1; as the light chain of m1; The optimised ELISA coated 'the M4-B4 Fab or IgG'; also called HKa-specific antibody
B2: M4-B4 (antibody, V domains shown)
VH: EVQLLESGGGLVQPGGSLRLSCAASGFTFSFYVMVWVRQAPGKGLEWVSGISPSGGNTAYADSVKGRFTISRDNSKNTLYLQMNSLRAEDTAVYYCARKLFYYDDTKGYFDFWGQGTLVTVSS
VL: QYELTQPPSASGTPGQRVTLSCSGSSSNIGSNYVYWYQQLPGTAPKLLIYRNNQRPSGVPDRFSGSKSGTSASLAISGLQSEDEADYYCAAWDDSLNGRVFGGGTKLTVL
notes: The legend of the SPR says only 'M4-B4 injected'; also called M004-B04; 559B-M0004-B04; source: Fab: E. coli, purified (protein A Sepharose); IgG1: 293T cells, transiently expressed, purified (protein A Sepharose)

Experiments:
Settings in all cases: both partners purified
[1] = molecular target: T1, cleaved high-molecular-weight kininogen (HKa), purified (Homo sapiens, UniProt P01042, biotin (biotinylated HKa in the Fab screening ELISA) | biotin (biotinylated HKa in the Fab screening ELISA)); test: SPR; in the presence of zinc chloride
T1 construct: heavy chain of HKa, the two-chain disulfide-linked product of high-molecular-weight kininogen after release of bradykinin, human; light chain of HKa, human; the purified HKa standard mainly consists of the 46-kDa light chain; also called cleaved HK; purified HKa standard protein; source: bought: Enzyme Research Laboratories

[2] = molecular target: T1, cleaved high-molecular-weight kininogen …; test: SPR; in the absence of zinc chloride
[3] = molecular target: T2, cleaved high-molecular-weight kininogen (HKa) (Homo sapiens, UniProt P01042); test: SPR; HKa immobilised by amine coupling on a CM5 chip (~400 RU), M4-B4 injected 2 min at 50 uL/min, 15 min dissociation; Biacore 3000, 25°C, HBS-P (10 mM HEPES pH 7.4, 150 mM NaCl, 0.005% P20); no added ZnCl2; 1:1 model
T2 construct: the two chains are linked by a disulfide; light chain of HKa (56-kDa or 46-kDa form); the purified HKa standard protein mainly consists of the 46-kDa light chain; also called cleaved HK; source: bought: Enzyme Research Laboratories
T2 sequence (P01042 whole entry, looked up): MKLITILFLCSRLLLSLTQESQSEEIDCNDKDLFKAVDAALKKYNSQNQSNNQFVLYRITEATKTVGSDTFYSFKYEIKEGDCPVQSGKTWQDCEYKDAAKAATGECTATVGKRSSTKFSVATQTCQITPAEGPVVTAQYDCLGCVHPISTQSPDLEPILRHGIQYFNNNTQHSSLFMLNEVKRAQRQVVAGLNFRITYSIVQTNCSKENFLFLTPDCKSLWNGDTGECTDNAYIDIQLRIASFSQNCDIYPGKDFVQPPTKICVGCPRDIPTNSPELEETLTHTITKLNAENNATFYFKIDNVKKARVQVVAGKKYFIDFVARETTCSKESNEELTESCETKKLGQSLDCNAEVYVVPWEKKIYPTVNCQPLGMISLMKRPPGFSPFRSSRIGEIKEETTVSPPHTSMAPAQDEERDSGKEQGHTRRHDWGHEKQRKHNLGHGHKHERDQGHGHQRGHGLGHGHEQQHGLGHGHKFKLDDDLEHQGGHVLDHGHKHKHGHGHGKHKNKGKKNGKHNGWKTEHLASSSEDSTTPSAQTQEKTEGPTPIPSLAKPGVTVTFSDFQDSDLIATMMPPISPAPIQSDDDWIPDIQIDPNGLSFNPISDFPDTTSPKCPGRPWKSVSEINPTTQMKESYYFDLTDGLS

[4] = molecular target: T2, cleaved high-molecular-weight kininogen …; test: SPR; HKa immobilised by amine coupling on a CM5 chip (~400 RU), M4-B4 injected 2 min at 50 uL/min, 15 min dissociation; Biacore 3000, 25°C, HBS-P (10 mM HEPES pH 7.4, 150 mM NaCl, 0.005% P20) with 200 uM ZnCl2; regeneration 10 mM glycine pH 1.5; 1:1 model

Row | Kd [1] [nM] | Kd [2] [nM] | Kd [3] | koff [3] | kon [3] | Kd [4] | koff [4] | kon [4] | Binder
1 | 1.06 ± 0.25 | 6.08 ± 0.26 |  |  |  |  |  |  | B1
2 |  |  | 5.9 nM and 6.26 nM | 0.0067 s⁻¹ and 0.00616 s⁻¹ and 0.00643 s⁻¹ | 1.1e+06 M⁻¹ s⁻¹ (2×) and 984000 M⁻¹ s⁻¹ | 1.09 nM and 1.24 nM and 0.881 nM | 0.00125 s⁻¹ and 0.00172 s⁻¹ and 0.00156 s⁻¹ and 0.00164 s⁻¹ | 1.38e+06 M⁻¹ s⁻¹ and 1.77e+06 M⁻¹ s⁻¹ and 1.58e+06 M⁻¹ s⁻¹ and 1.15e+06 M⁻¹ s⁻¹ | B2
